Target: spike protein of wild-type SARS-CoV strain HKU 39849 (SARS-CoV strain HKU 39849)
Test: cell-based or functional assay

Substance: CR03-022 (antibody)
- Log (TCID50/ml) with mAb (60 µg/ml CR03-022, FRhK-4 cells) (log TCID50/ml): 4
- NI (neutralization index): 3.3 logs

Reference: US20080014204A1
